PMC5739345, “Identification of iridoid synthases from Nepeta species: Iridoid cyclization does not determine nepetalactone stereochemistry” (Phytochemistry, 2018)

Columns and labels:
[1] = substrate: NC(=O)C1=CN([C@@H]2O[C@H](COP(=O)(O)OP(=O)(O)OC[C@H]3O[C@@H](n4cnc5c(N)ncnc54)[C@H](OP(=O)(O)O)[C@@H]3O)[C@@H](O)[C@H]2O)C=CC1; assay: purified protein; assay type: biochemical, Nepeta racemosa; settings: 50 μM 8-oxogeranial, 200 mM MOPS pH 7.0, 100 mM NaCl, 1-1.4% THF, 25 °C, 5 nM enzyme, varied: cofactor
[2] = substrate: C/C(C=O)=C\CC/C(C)=C/C=O; assay: purified protein; assay type: biochemical, Nepeta racemosa; settings: 75 μM NADPH, 200 mM MOPS pH 7.0, 100 mM NaCl, 1-1.4% THF, 25 °C, 5 nM enzyme

B1: NmISY2 (Nepeta racemosa) (protein)
chain: MSLSWWRAGAAKKRMDDDESLLVKQQQQQCVALIVGVTGLVGNSLAEMLPLPDTPGGPWKVYGVARRARPSWNEDQPMTYISCDVSNTGEVEAKLSPLSDVTHIFYATWTSRSTEEENCEANGKMLKNVLDAMIPNCPNLKHICLQTGRFHYVASVVDWKINGSHDTPLTEDLPRLKTNNFYYTQEDILLEEVKRKEGLTWSVHRPGTIFGFSPYSMMNLVGTLCVYAAICKQEGAVLRFPGCKGAWDGHSDCADADLIAEQQIWAALDPHAKNQAFNVSNGDLFKWKHLWKVLADQFGVECGDYEEGQQLRLQDVMKDKGPVWDKIVAENGLSNTKLEDVGKWWFSDTILWNECRLDSMNKSKEHGFLGFRNSKNCFLYWIHKVKAYNLVPSTYT
notes: N-terminal His-tag (pOPINF), E. coli soluBL21 (DE3), Ni-NTA and gel filtration; not fully homogeneous; dimer fraction; Phe at Lys146, Ala at Gly150 positions (natural)
- Km [1]: 26.2 ± 5.1 µM
- kcat [1]: 0.84 ± 0.06 s⁻¹
- Km [2]: 7.3 ± 0.7 µM
- kcat [2]: 0.60 ± 0.02 s⁻¹
